The values below come from paper PMC7617692, “Structural evolution of fibril polymorphs during amyloid assembly” (Cell, 2023).

Bridge positions count the residues as written; N and C are the ends. Ends that are not written are not given here.

The series concerns the molecule itself. Kind of series: cryo-EM structure; fibrils grown quiescently in glass vials, 30 uM peptide, 20 mM ammonium acetate pH 6.8, room temperature; sampled at 3 weeks (lag phase), undiluted; helical reconstruction; repeated with a second reaction.

B1: human islet amyloid polypeptide S20G variant (IAPP-S20G) (peptide)
chain: KCNTATCATQRLANFLVHSGNNFGAILSSTNVGSNTY-NH2
modifications: disulfide 2-7; N-terminus assumed
SMILES: CC[C@H](C)[C@H](NC(=O)[C@H](C)NC(=O)CNC(=O)[C@H](Cc1ccccc1)NC(=O)[C@H](CC(N)=O)NC(=O)[C@H](CC(N)=O)NC(=O)CNC(=O)[C@H](CO)NC(=O)[C@H](Cc1c[nH]cn1)NC(=O)[C@@H](NC(=O)[C@H](CC(C)C)NC(=O)[C@H](Cc1ccccc1)NC(=O)[C@H](CC(N)=O)NC(=O)[C@H](C)NC(=O)[C@H](CC(C)C)NC(=O)[C@H](CCCNC(=N)N)NC(=O)[C@H](CCC(N)=O)NC(=O)[C@@H](NC(=O)[C@H](C)NC(=O)[C@@H]1CSSC[C@H](NC(=O)[C@@H](N)CCCCN)C(=O)N[C@@H](CC(N)=O)C(=O)N[C@@H]([C@@H](C)O)C(=O)N[C@@H](C)C(=O)N[C@@H]([C@@H](C)O)C(=O)N1)[C@@H](C)O)C(C)C)C(=O)N[C@@H](CC(C)C)C(=O)N[C@@H](CO)C(=O)N[C@@H](CO)C(=O)N[C@H](C(=O)N[C@@H](CC(N)=O)C(=O)N[C@H](C(=O)NCC(=O)N[C@@H](CO)C(=O)N[C@@H](CC(N)=O)C(=O)N[C@H](C(=O)N[C@@H](Cc1ccc(O)cc1)C(N)=O)[C@@H](C)O)C(C)C)[C@@H](C)O
notes: islet amyloid polypeptide (IAPP, amylin), human, 37-residue hormone, familial early-onset T2D variant S20G; Assembles into amyloid fibrils of two, three or four protofilaments; the number of chains in a fibril is open-ended; Purity >95% by analytical HPLC, mass 3873.3 Da; also called hIAPP-S20G; S20G-IAPP; source: synthetic peptide (Fmoc solid phase, oxidised, reverse-phase HPLC purified)
As to B1, the binding result is on record as “binds”.
